The values below come from article PMC2174553.

The test addresses Bub1p fusion to the Gal4 DNA binding domain (budding yeast) (UniProt P41695). Description: two-hybrid.
Sequence of UniProt P41695 (P41695 whole entry, the tested form may be a part): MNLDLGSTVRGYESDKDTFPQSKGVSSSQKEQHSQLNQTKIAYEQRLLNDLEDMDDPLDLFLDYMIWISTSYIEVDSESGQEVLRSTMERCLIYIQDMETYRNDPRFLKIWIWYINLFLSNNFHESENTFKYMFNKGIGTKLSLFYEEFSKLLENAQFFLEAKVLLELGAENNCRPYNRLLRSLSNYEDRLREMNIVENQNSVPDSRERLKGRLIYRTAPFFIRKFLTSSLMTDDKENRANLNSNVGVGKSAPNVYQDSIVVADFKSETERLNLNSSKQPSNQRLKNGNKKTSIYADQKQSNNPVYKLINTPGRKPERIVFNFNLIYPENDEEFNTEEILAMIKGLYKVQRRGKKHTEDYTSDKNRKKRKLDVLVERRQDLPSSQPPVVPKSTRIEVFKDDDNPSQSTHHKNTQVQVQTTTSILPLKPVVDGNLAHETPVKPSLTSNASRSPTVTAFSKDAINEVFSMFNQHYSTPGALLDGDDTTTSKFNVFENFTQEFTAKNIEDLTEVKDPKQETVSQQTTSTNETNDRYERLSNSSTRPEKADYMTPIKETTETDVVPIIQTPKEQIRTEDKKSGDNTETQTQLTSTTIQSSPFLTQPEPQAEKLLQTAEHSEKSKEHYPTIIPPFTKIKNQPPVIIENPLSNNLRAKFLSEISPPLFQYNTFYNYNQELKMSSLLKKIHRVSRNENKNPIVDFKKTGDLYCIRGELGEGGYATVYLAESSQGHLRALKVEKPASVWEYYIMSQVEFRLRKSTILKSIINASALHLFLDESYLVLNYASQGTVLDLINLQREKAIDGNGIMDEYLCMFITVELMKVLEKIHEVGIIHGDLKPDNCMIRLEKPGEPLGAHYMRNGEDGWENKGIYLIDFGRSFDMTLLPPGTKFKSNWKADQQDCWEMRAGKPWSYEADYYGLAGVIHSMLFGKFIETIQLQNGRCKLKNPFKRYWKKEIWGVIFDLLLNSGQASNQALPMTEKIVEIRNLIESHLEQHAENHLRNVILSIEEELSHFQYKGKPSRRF

B1: Bub3p fusion to the transcriptional activation domain (natural protein)
chain: MQIVQIEQAPKDYISDIKIIPSKSLLLITSWDGSLTVYKFDIQAKNVDLLQSLRYKHPLLCCNFIDNTDLQIYVGTVQGEILKVDLIGSPSFQALTNNEANLGICRICKYGDDKLIAASWDGLIEVIDPRNYGDGVIAVKNLNSNNTKVKNKIFTMDTNSSRLIVGMNNSQVQWFRLPLCEDDNGTIEESGLKYQIRDVALLPKEQEGYACSSIDGRVAVEFFDDQGDDYNSSKRFAFRCHRLNLKDTNLAYPVNSIEFSPRHKFLYTAGSDGIISCWNLQTRKKIKNFAKFNEDSVVKIACSDNILCLATSDDTFKTNAAIDQTIELNASSIYIIFDYEN
As to B1, the β-galactosidase activity (two-hybrid) is 55 Miller units.

B2: Cdc20p fusion to the transcriptional activation domain (natural protein)
chain: MPESSRDKGNAAISGNRSVLSIASPTKLNILSSDWSRNQGKVSKNSLKRSSSLNIRNSKRPSLQASANSIYSRPKITIGAPPLIRRDSSFFKDEFDAKKDKATFSAYSSRSYPTIGSESVVSQTSLSQPTTSREVDEQFTVAADRYIPILQGASQNKVDPETLHEALPPPNASPISHLRAQTKIVFKQNVAEACGLDMNKRILQYMPEPPKCSSLRQKSYIMKKRTHYSYQQEQKIPDLIKLRKINTNPERILDAPGFQDDFYLNLLSWSKKNVLAIALDTALYLWNATTGDVSLLTDFENTTICSVTWSDDDCHISIGKEDGNTEIWDVETMSLIRTMRSGLGVRIGSLSWLDTLIATGSRSGEIQINDVRIKQHIVSTWAEHTGEVCGLSYKSDGLQLASGGNDNTVMIWDTRTSLPQFSKKTHTAAVKALSWCPYSPNILASGGGQTDKHIHFWNSITGARVGSINTGSQVSSLHWGQSHTSTNGGMMNKEIVATGGNPENAISVYNYETKFKVAEVVHAHEARICCSQLSPDGTTLATVGGDENLKFYKIFDPRCTGRSREDGLMDGMLGLIGKEGCRTNDKENRSKNSSEIHTRRPSSTSQYLIR
As for B2, the β-galactosidase activity (two-hybrid) is 100 Miller units.
